# Molecular target: 肿瘤细胞SKBR3表面的Her2抗原 (UniProt P04626 23-1255, limits assumed)
# Assay: cell-based or functional assay
row,"对SKBR3细胞的杀伤 EC50浓度 (CTL, LDH release, PBMC effector cells) [ng/mL]",Binder
1,0.045,"抗Her2×抗CD3双特异性抗体MutC (bispecific antibody, human IgG1, kappa) heavy 1: EVQLVESGGGLVQPGGSLRLSCAASGFTFNTYAMNWVRQAPGKGLEWVARIRSKYNNYATYYADSVKDRFTISRDDSKNSLYLQMNSLKTEDTAVYYCARHGNFGNSYVSWFAYWGQGTLVTVSSISSASTKGPSVFPLAPSSKSTSGGTAALGCLVKDYFPEPVTVSWNSGALTSGVHTFPAVLQSSGLYSLSSVVTVPSSSLGTQTYICNVNHKPSNTKVDKKVEPKSCDKTHTCPPCPAPELLGGPSVFLFPPKPKDTLMISRTPEVTCVVVDVSHEDPEVKFNWYVDGVEVHNAKTKPREEQYNSTYRVVSVLTVLHQDWLNGKEYKCKVSNKALPAPIEKTISKAKGQPREPQVYTLPPSREEMTKNQVSLTCLVKGFYPSDIAVEWESNGQPENNYKTTKKKLDSDGSFFLYSKLTVDKSRWQQGNVFSCSVMHEALHNHYTQKSLSLSPGK light 1: QTVVTQEPSLTVSPGGTVTLTCGSSTGAVTTSNYANWVQEKPGQAPRGLIGGTNKRAPWTPARFSGSLLGGKAALTITGAQAEDEADYYCALWYSNLWVFGGGTKLTVLGKLVTMEIKRTVAAPSVFIFPPSDEQLKSGTASVVCLLNNFYPREAKVQWKVDNALQSGNSQESVTEQDSKDSTYSLSSTLTLSKADYEKHKVYTCEVTHQGLSSPVTKSFNRGEC heavy 2: not shown light 2: DIQMTQSPSSLSASVGDRVTITCRASQDVNTAVAWYQQKPGKAPKLLIYSASFLYSGVPSRFSGSRSGTDFTLTISSLQPEDFATYYCQQHYTTPPTFGQGTKLVTMEIKRTVAAPSVFICPPSDEQLKSGTASVVCLLNNFYPREAKVQWKVDNALQSGNSQESVTEQDSKDSTYSLSSTLTLSKADYEKHKVYTCEVTHQGLSSPVTKSFNRGES"
2,0.055,抗Her2×抗CD3双特异性抗体MutC+ER (bispecific antibody) chain 1: EVQLVESGGGLVQPGGSLRLSCAASGFTFNTYAMNWVRQAPGKGLEWVARIRSKYNNYATYYADSVKDRFTISRDDSKNSLYLQMNSLKTEDTAVYYCARHGNFGNSYVSWFAYWGQGTLVTVSSISSASTKGPSVFPLAPSSKSTSGGTAALGCLVKDYFPEPVTVSWNSGALTSGVHTFPAVLQSSGLYSLSSVVTVPSSSLGTQTYICNVNHKPSNTKVDKKVEPESCDKTHTCPPCPAPELLGGPSVFLFPPKPKDTLMISRTPEVTCVVVDVSHEDPEVKFNWYVDGVEVHNAKTKPREEQYNSTYRVVSVLTVLHQDWLNGKEYKCKVSNKALPAPIEKTISKAKGQPREPQVYTLPPSREEMTKNQVSLTCLVKGFYPSDIAVEWESNGQPENNYKTTKKKLDSDGSFFLYSKLTVDKSRWQQGNVFSCSVMHEALHNHYTQKSLSLSPGK chain 2: QTVVTQEPSLTVSPGGTVTLTCGSSTGAVTTSNYANWVQEKPGQAPRGLIGGTNKRAPWTPARFSGSLLGGKAALTITGAQAEDEADYYCALWYSNLWVFGGGTKLTVLGKLVTMEIKRTVAAPSVFIFPPSDEQLKSGTASVVCLLNNFYPREAKVQWKVDNALQSGNSQESVTEQDSKDSTYSLSSTLTLSKADYEKHKVYTCEVTHQGLSSPVTKSFNRGRC chain 3: not shown chain 4: DIQMTQSPSSLSASVGDRVTITCRASQDVNTAVAWYQQKPGKAPKLLIYSASFLYSGVPSRFSGSRSGTDFTLTISSLQPEDFATYYCQQHYTTPPTFGQGTKLVTMEIKRTVAAPSVFICPPSDEQLKSGTASVVCLLNNFYPREAKVQWKVDNALQSGNSQESVTEQDSKDSTYSLSSTLTLSKADYEKHKVYTCEVTHQGLSSPVTKSFNRGES
3,0.034,"抗Her2×抗CD3双特异性抗体MutC-ER (bispecific antibody, human IgG1, kappa) heavy 1: EVQLVESGGGLVQPGGSLRLSCAASGFTFNTYAMNWVRQAPGKGLEWVARIRSKYNNYATYYADSVKDRFTISRDDSKNSLYLQMNSLKTEDTAVYYCARHGNFGNSYVSWFAYWGQGTLVTVSSISSASTKGPSVFPLAPSSKSTSGGTAALGCLVKDYFPEPVTVSWNSGALTSGVHTFPAVLQSSGLYSLSSVVTVPSSSLGTQTYICNVNHKPSNTKVDKKVEPKSCDKTHTCPPCPAPELLGGPSVFLFPPKPKDTLMISRTPEVTCVVVDVSHEDPEVKFNWYVDGVEVHNAKTKPREEQYNSTYRVVSVLTVLHQDWLNGKEYKCKVSNKALPAPIEKTISKAKGQPREPQVYTLPPSREEMTKNQVSLTCLVKGFYPSDIAVEWESNGQPENNYKTTKKKLDSDGSFFLYSKLTVDKSRWQQGNVFSCSVMHEALHNHYTQKSLSLSPGK light 1: QTVVTQEPSLTVSPGGTVTLTCGSSTGAVTTSNYANWVQEKPGQAPRGLIGGTNKRAPWTPARFSGSLLGGKAALTITGAQAEDEADYYCALWYSNLWVFGGGTKLTVLGKLVTMEIKRTVAAPSVFIFPPSDEQLKSGTASVVCLLNNFYPREAKVQWKVDNALQSGNSQESVTEQDSKDSTYSLSSTLTLSKADYEKHKVYTCEVTHQGLSSPVTKSFNRGEC heavy 2: not shown light 2: DIQMTQSPSSLSASVGDRVTITCRASQDVNTAVAWYQQKPGKAPKLLIYSASFLYSGVPSRFSGSRSGTDFTLTISSLQPEDFATYYCQQHYTTPPTFGQGTKLVTMEIKRTVAAPSVFICPPSDEQLKSGTASVVCLLNNFYPREAKVQWKVDNALQSGNSQESVTEQDSKDSTYSLSSTLTLSKADYEKHKVYTCEVTHQGLSSPVTKSFNRGRS"

# — patent CN110357960A (GUANGZHOU AISIMAI BIOMEDICAL TECH CO LTD, dated 2019)
